Test results taken from US20210363269A1 (ALX ONCOLOGY, published 2021).
Substitutions are numbered along the chain they refer to. Numbers in names are those of the source.

Legend:
[1] = biological target: T1, high affinity SIRP-α D1 variant CV1-3; assay: SPR, Langmuir fit
T1 chain: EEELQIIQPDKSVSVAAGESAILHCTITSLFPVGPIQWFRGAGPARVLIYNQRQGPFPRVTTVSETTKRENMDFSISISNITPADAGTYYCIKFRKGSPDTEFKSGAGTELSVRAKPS
In short: (§1)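 Dissociation rate constants (koff) were measured on a ProteOn XPR36 instrument by Langmuir model fitting. Antibody clones in scFv-Fc format were captured from pre-filtered culture media onto a GLC chip with about 4000 RU of amine-coupled anti-human IgG Fc. SIRP analytes ran in PBS pH 7.4 with 0.01% Tween-20 at 25° C, and the model used was 1:1, applied to data double-referenced against interspot and buffer-blank responses.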

[2] = biological target: T2, human SIRP-α v2 D1 domain (human); assay: SPR, Langmuir fit
T2 construct: also called human v2
In short: as §1
T2 sequence (chain, as listed by the source limits assumed): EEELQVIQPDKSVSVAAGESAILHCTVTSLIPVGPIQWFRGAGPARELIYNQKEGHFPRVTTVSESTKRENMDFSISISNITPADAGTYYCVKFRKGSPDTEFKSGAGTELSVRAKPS

[3] = biological target: T3, human SIRP-α v1 D1 domain (human, UniProt P78324 31-149); assay: SPR, Langmuir fit
T3 construct: also called human v1
In short: as §1
T3 sequence (P78324 31-149 limits assumed): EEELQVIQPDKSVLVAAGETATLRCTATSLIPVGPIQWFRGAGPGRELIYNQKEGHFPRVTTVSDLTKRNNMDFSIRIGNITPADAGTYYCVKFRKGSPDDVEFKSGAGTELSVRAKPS

[4] = biological target: T4, mouse 129 SIRP-α D1 domain (mouse (129 strain), UniProt P97797 32-150); assay: SPR
T4 construct: also called m129
T4 chain: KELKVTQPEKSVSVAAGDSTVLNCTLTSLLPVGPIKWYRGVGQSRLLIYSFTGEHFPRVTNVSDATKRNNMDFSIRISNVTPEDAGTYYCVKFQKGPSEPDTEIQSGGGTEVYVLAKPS
In short: as §1

human SIRPβ isoform 1 [5] = biological target: T5, human SIRPβ isoform 1 (human, UniProt O00241 30-148); assay: SPR
T5 construct: also called SIRPb; sirpb1
In short: as §1
T5 sequence (O00241 30-148 limits assumed): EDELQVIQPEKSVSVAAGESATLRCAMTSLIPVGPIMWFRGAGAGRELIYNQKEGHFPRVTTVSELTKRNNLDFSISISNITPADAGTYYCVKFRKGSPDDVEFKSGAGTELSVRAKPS

[6] = biological target: T6, C57BL/6 mouse SIRP-α D1 domain (mouse (C57BL/6 strain), UniProt P97797 32-148); assay: SPR
T6 sequence: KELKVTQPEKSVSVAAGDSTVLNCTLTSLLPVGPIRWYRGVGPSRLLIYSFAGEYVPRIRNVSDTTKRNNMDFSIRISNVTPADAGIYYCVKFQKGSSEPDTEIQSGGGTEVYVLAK
In short: as §1

human SIRPγ isoform 1 [7] = biological target: T7, human SIRPγ isoform 1 (human, UniProt Q9P1W8 29-147); assay: SPR
T7 construct: also called SIRPg; sirpg
In short: as §1
T7 sequence (Q9P1W8 29-147 limits assumed): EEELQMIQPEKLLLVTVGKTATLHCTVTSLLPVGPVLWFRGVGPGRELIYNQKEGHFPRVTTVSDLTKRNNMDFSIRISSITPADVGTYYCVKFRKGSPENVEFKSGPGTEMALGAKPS

[8] = biological target: T8, cynomolgus SIRP-α D1 domain (cyno1) (cynomolgus monkey, UniProt Q5TFQ8 30-148 (human entry), limits assumed); assay: SPR
T8 chain: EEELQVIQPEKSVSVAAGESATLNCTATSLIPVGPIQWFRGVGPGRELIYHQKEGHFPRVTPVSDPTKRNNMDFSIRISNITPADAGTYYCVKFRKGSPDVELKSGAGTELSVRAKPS
In short: as §1

[9] = biological target: T9, NOD mouse SIRP-α D1 domain (mouse (NOD strain)); assay: SPR, ProteOn, antibody on chip
T9 chain: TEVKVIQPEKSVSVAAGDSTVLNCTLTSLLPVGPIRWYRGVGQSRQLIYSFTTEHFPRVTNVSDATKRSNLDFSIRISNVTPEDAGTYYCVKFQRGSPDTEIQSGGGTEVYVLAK
Experimental: (§2) All experiments were performed at 25° C. using a SPR-based ProteOn XPR36 biosensor (BioRad, Inc, Hercules, Calif.) equipped with GLC or NLC sensor chips. […] Purification was carried out by standard Protein A affinity column chromatography and eluted antibodies were stored in PBS buffer.
(§3) For the method using GLC chip, the analytes were injected and flowed over anti-SIRPα antibodies immobilized (˜1000 RUs) on GLC chips using Proteon™ Amine Coupling Kit. For the immobilization step, GLC chip was activated with EDAC/Sulpho-NHS 1:1 (Biorad) diluted 1/100 for 300 s at 25 μL/min. Anti-SIRPα antibodies were diluted to 80 nM concentration in 10 mM sodium acetate buffer pH 4.5 and immobilized to the chip at 30 μL/min for 50 s. Chip was inactivated with ethanolamine for 300 s at 25 μL/min. The analytes (e.g., SIRP-α from different species, SIRP-β, SIRP-γ) were injected in a “one-shot” kinetic mode at nominal concentrations of 100, 33, 11, 3.7, 1.2 and 0 nM. Association times were monitored for 90 s at 100 μL/min, and dissociation times were monitored for 1200 s. The surfaces were regenerated with a 2:1 v/v blend of Pierce IgG elution buffer/4M NaCl.
(§4) Next, the binding kinetics of various antibody clones to selected mouse SIRP-α proteins were determined as described above. Mouse proteins that were tested include BALBc (SEQ ID NO:10), BL6 (SEQ ID NO:9), NOD (SEQ ID NO:8), and m129 (SEQ ID NO:7) SIRP-α proteins. Antibody clones labeled as “c” were tested as full-length mouse IgG2a antibodies; antibody clones labeled as “a” were tested as full-length human IgG1 antibodies with L234A, L235A, G237A, and N297A mutations.

[10] = biological target: T10, mouse 129 SIRP-α D1 domain (mouse (129 strain), UniProt P97797 32-150); assay: SPR, ProteOn, antibody on chip
T10 construct: also called m129
T10 chain: T4 chain
Experimental: as §2, §3, §4

human SIRPγ isoform 1 [11] = biological target: T11, human SIRPγ isoform 1 (human, UniProt Q9P1W8 29-147); assay: SPR, antibody immobilised on GLC chip
T11 construct: also called sirpg; sirp-g
Experimental: as §2
(§5) For the method using GLC chip, the analytes were injected and flowed over anti-SIRPα antibodies immobilized (˜1000 RUs) on GLC chips using Proteon™ Amine Coupling Kit. For the immobilization step, GLC chip was activated with EDAC/Sulpho-NHS 1:1 (Biorad) diluted 1/100 for 300 s at 25 μL/min. Anti-SIRPα antibodies were diluted to 80 nM concentration in 10 mM sodium acetate buffer pH 4.5 and immobilized to the chip at 30 μL/min for 50 s. Chip was inactivated with ethanolamine for 300 s at 25 μL/min. The analytes (e.g., SIRP-α from different species, SIRP-β, SIRP-γ) were injected in a “one-shot” kinetic mode at nominal concentrations of 100, 33, 11, 3.7, 1.2 and 0 nM. Association times were monitored for 90 s at 100 μL/min, and dissociation times were monitored for 1200 s. The surfaces were regenerated with a 2:1 v/v blend of Pierce IgG elution buffer/4M NaCl. […]
T11 sequence (Q9P1W8 29-147 limits assumed): as the sequence (Q9P1W8 29-147 limits assumed) above

[12] = biological target: T12, BALB/c mouse SIRP-α D1 domain (mouse (BALB/c strain)); assay: SPR, antibody immobilised on GLC chip
T12 chain: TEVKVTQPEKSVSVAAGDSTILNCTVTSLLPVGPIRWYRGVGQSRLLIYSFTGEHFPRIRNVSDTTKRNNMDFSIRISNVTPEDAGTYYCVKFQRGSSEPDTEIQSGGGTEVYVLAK
Experimental: as §2, §5

[13] = biological target: T13, human SIRP-α v2 D1 domain (human); assay: SPR, antibody immobilised on GLC chip
T13 construct: also called human v2; human α v2
Experimental: as §2, §5

[14] = biological target: T9, NOD mouse SIRP-α D1 domain; assay: SPR, antibody immobilised on GLC chip
Experimental: as §2, §5

[15] = biological target: T14, C57BL/6 mouse SIRP-α D1 domain (mouse (C57BL/6 strain), UniProt P97797 32-148); assay: SPR, antibody immobilised on GLC chip
T14 sequence: T6 sequence
Experimental: as §2, §5

[16] = biological target: T15, human SIRP-α v1 D1 domain (human, UniProt P78324 31-149); assay: SPR, antibody immobilised on GLC chip
T15 construct: also called human v1; human α v1
Experimental: as §2, §5
T15 sequence (P78324 31-149 limits assumed): as the sequence (P78324 31-149 limits assumed) above

human SIRPγ isoform 1 [17] = biological target: T11, human SIRPγ isoform 1; assay: SPR, ProteOn, antibody on chip
Experimental: as §2
(§6) The running buffer was PBS pH 7.4 with 0.01% Tween-20 (PBST+). All analytes were used at their nominal concentrations as determined by A280 Absorbance and using their molar calculated extinction coefficient.
as §3

[18] = biological target: T12, BALB/c mouse SIRP-α D1 domain; assay: SPR, ProteOn, antibody on chip
Experimental: as §2, §6, §3

[19] = biological target: T13, human SIRP-α v2 D1 domain; assay: SPR, ProteOn, antibody on chip
Experimental: as §2, §6, §3

[20] = biological target: T14, C57BL/6 mouse SIRP-α D1 domain; assay: SPR, ProteOn, antibody on chip
Experimental: as §2, §6, §3

human SIRPβ isoform 2 = biological target: T16, human SIRPβ isoform 2 (human, UniProt Q5TFQ8 30-148); assay: SPR, ProteOn, antibody on chip
T16 construct: also called Sirpb2; beta isoform 2
T16 sequence (Q5TFQ8 30-148 limits assumed): as the sequence (P78324 31-149 limits assumed) above, with V13I, L14S, T20S, R24H, A27V, G79S, D101H counted along it
Experimental: as §2, §6, §3

[21] = biological target: T15, human SIRP-α v1 D1 domain; assay: SPR, ProteOn, antibody on chip
Experimental: as §2, §6, §3

human SIRPβ isoform 1 [22] = biological target: T17, human SIRPβ isoform 1 (human, UniProt O00241 30-148); assay: SPR, ProteOn, antibody on chip
T17 construct: also called sirpb1; Sirpb1
Experimental: as §2, §6, §3
T17 sequence (O00241 30-148 limits assumed): as the sequence (O00241 30-148 limits assumed) above

[23] = biological target: T13, human SIRP-α v2 D1 domain; assay: method not stated at the table (SPR elsewhere in the filing)
[24] = biological target: T15, human SIRP-α v1 D1 domain; assay: as above

B1: S173 (scFv, V domains shown)
VH: DVQLVESGGGVVRPGESLRLSCAASGFAFSDHDMSWVRQGPGEGLEWVAGISLRGGVTWYADSVKGRFTISRDNSKNTLYLRLFSLRTEDTAIYYCARESWNTFFDYWGLGTLVTVSS
VL: EIVLTQSPGTLSLSPGETATLSCRASQNVRSNLAWYQQKPGQAPRLLIYDASSRATGIPDRFSGSGSGTDFTLTISSLQSEDFAVYYCQQYGNGPPLTFGGGTKVEIK
koff [1]: 0.00137 s⁻¹ | koff [2]: 0.00504 s⁻¹ | koff [3]: 0.00112 s⁻¹ | binding result [4]: no binding (tested: Koff > 5 × 10^3 (legend)) | binding result (human SIRPβ isoform 1 [5]): no binding (tested: Koff > 5 × 10^3 (legend)) | binding result [6]: no binding (tested: Koff > 5 × 10^3 (legend)) | binding result (human SIRPγ isoform 1 [7]): no binding (tested: Koff > 5 × 10^3 (legend)) | binding result [8]: no binding (tested: Koff > 5 × 10^3 (legend))

B2: S174 (scFv, V domains shown)
VH: B1 VH with A28T
VL: B1 VL
koff [1]: 0.00189 s⁻¹ | koff [2]: 0.00399 s⁻¹ | koff [3]: 0.00143 s⁻¹ | binding result [4]: no binding (tested: Koff > 5 × 10^3 (legend)) | binding result (human SIRPβ isoform 1 [5]): no binding (tested: Koff > 5 × 10^3 (legend)) | binding result [6]: no binding (tested: Koff > 5 × 10^3 (legend)) | binding result (human SIRPγ isoform 1 [7]): no binding (tested: Koff > 5 × 10^3 (legend)) | binding result [8]: no binding (tested: Koff > 5 × 10^3 (legend))

B3: AB136a (antibody, human IgG1, V domains shown)
VH: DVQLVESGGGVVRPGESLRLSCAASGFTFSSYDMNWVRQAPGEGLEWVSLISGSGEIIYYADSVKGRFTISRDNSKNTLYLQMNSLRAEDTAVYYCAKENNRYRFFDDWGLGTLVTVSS
VL: ETVLTQSPGTLTLSPGERATLTCRASQSVYTYLAWYQEKPGQAPRLLIYGASSRATGIPDRFSGSGSGTEFTLTISSLQSEDFAVYYCQQYYDRPPLTFGGGTKVEIK
notes: Full-length human IgG1 with L234A, L235A, G237A and N297A
Kd [9]: 0.533 nM | koff [9]: 0.000448 s⁻¹ | kon [9]: 841000 M⁻¹ s⁻¹ | Kd [10]: 0.867 nM | koff [10]: 0.000597 s⁻¹ | kon [10]: 688000 M⁻¹ s⁻¹ | Kd (human SIRPγ isoform 1 [11]): 33.6 nM | Kd [12]: 0.458 nM | Kd [13]: 2.54 nM | Kd [14]: 0.821 nM | Kd [15]: 16.4 nM | Kd [16]: 0.972 nM | Kd (human SIRPγ isoform 1 [17]): 120 nM | Kd [18]: 0.331 nM | koff [18]: 0.000273 s⁻¹ | kon [18]: 827000 M⁻¹ s⁻¹ | Kd [19]: 3.22 nM | Kd [20]: 9.37 nM | koff [20]: 0.00585 s⁻¹ | kon [20]: 624000 M⁻¹ s⁻¹ | Kd (human SIRPβ isoform 2): 2.27 nM | Kd [21]: 0.688 nM | Kd (human SIRPβ isoform 1 [22]): 4.35 nM

B4: AB218a (antibody, human IgG1, V domains shown)
VH: DVQLVESGGGVVRPGESLTLSCTASGFTFTSSTMNWVRQAPGEGLDWVSSISTSGVITYYADSVKGRATISRDNSKNTLYLRLFSLRADDTAIYYCATDTFDHWGPGTLVTVSS
VL: ALTQPASVSANPGETVKITCFGSSGNYGWFQQKSPGSAPVTVIHYNNKRPSDIPSRFSGSKSGSTGTLTITGVRAEDEAVYFCGAWETGSATFGAGTTLTVL
notes: Human IgG1 with L234A, L235A, G237A and N297A ('a' format)
Kd [23]: 0.323 nM | Kd [24]: 0.16 nM

B5: 218-Hum13/VH_wt (antibody, V domains shown)
VH: B4 VH
VL: QSALTQPASVSGSPGQSITISCFGSSGNYGLVSWYQQHPGKAPKLMIYYNNKRPSGVSNRFSGSKSGNTASLTISGLQAEDEADYYCGAWETGSATFGGGTKLTVL
Kd [23]: 33.8 nM | Kd [24]: 29.3 nM

B6: 218-Hum14/VH_wt (antibody, V domains shown)
VH: B4 VH
VL: SYELTQPPSVSVSPGQTASITCFGSSGNYGWYQQKPGQSPVLVIYYNNKRPSGIPERFSGSNSGNTATLTISGTQAMDEADYYCGAWETGSATFGGGTKLTVL
Kd [23]: 53.1 nM | Kd [24]: 34.5 nM
